Measured values: US5691312A, “Pharmaceutical for subcutaneous or intramuscular administration containing polypeptides” (Behringwerke Aktiengesellschaft, priority 1989, dated 1997)

Assays:
[1] = Bioavailability and/or tolerability of polypeptides administered sc or im with added amino acid (general statements); format: in vivo, rats or rabbits; details: amino acid additives, sc or im administration
Experimental: (§1) Each ml of the thawed solutions from Example 1 was administered sc and im (femoral biceps) in animals (rats or rabbits). In the case of im administration, the total volume of 1 ml was divided between four types of injection.
(§2) After 0, 15, 30, 60, 120, 180, 240 and 340 minutes (r-t-PA mutant) or 0, 30, 60, 120, 180, 240, 300, 360, 420 and 450 minutes (r-t-PA, hirudin, urokinase AT III, F XIII, von Willebrand, EPO, PP4), blood samples (+ citrate) were taken. The blood samples were then immediately centrifuged and the resulting citrate plasma was frozen at -20° C. until the determination. The plasma concentration of the test substance was measured as follows:
(§3) The area under the curve (AUC) was then calculated. This value is an expression of the bioavailability and makes possible comparison between the different presentation forms.

[2] = Hemorrhages at the administration site, hirudin; format: in vivo, rat
Experimental: as §1
(§4) Number of animals with hemorrhages

[3] = additive for sc or im administration of proteins; WO 86/06962 and EP-A-0,292,908; cited from earlier work
[4] = Bioavailability of t-PA in the rat (plasma concentration by ELISA, AUC); format: in vivo; details: n=2, 3.3/8.2 mg/kg
Experimental: Each ml of the thawed solutions from Example 1 was administered sc and im (femoral biceps) in animals (rats or rabbits). In the case of im administration, the total volume of 1 ml was divided between four types of injection. […]
as §2
r-t-PA ELISA (Biopool, Sweden)
as §3
I. Bioavailability of t-PA in the rat

[5] = Death of animals after sc/im administration; format: in vivo; details: buffer 5 (0.05 M tris, 0.1 M NaCl pH 7.5, 0.1% Tween 80, 50 mg/ml hydroxylamine), rat, 3.3/8.2 mg/kg
Experimental: as §1

[6] = Hemorrhages at the administration site, urokinase; format: in vivo, rabbit; details: for Number of animals with hemorrhages: 0.05 M tris, 5 mg/kg
Experimental: as §1, §4

[7] = presentation form according to the invention versus customary presentation forms

F XIII: F XIII (Fibrogammin) obtained from Behringwerke
influence on the bioavailability and/or improvement in the tolerability [1]: favorable influence

Hirudin
influence on the bioavailability and/or improvement in the tolerability [1]: favorable influence | Number of animals with hemorrhages ([2]; 0.05 M tris, 0.1 M NaCl, im, 10 mg/kg): 3/3 | animal died as a result of the hemorrhages ([2]; 0.05 M tris, 0.1 M NaCl, im, 10 mg/kg, of 3 animals): 1 animal | Number of animals with hemorrhages ([2]; 0.05 M tris, 0.1 M NaCl, sc, 10 mg/kg): 2/3 | Number of animals with hemorrhages ([2]; 0.2 M arginine, 0.2 M lysine pH 7.5, im, 10 mg/kg): 0/3 | Number of animals with hemorrhages ([2]; 0.2 M arginine, 0.2 M lysine pH 7.5, sc, 10 mg/kg): 0/3 | hemorrhages at the administration site on sc and im administration [2, 7]: distinctly less

NO [hydroxylamine]
tolerability [3]: limited tolerability

von Willebrand factor: prepared by the process of DE 3,904,354 (1 mg of vW corresponds to 100 U of vW antigen)
influence on the bioavailability and/or improvement in the tolerability [1]: favorable influence

EPO: r-erythropoietin (EPO); 1 mg of EPO corresponds to 80,000 U of EPO antigen
influence on the bioavailability and/or improvement in the tolerability [1]: favorable influence

t-PA: r-t-PA (Actilyse) purchased from Boehringer Ingelheim; tissue plasminogen activator
influence on the bioavailability and/or improvement in the tolerability [1]: favorable influence | AUC + Variation (%) ([4]; buffer 1 (0.05 M tris, 0.1 M NaCl), im): 358 ± 10% | AUC + Variation (%) ([4]; buffer 1 (0.05 M tris, 0.1 M NaCl), sc): 36 ± 13% | AUC + Variation (%) ([4]; buffer 2 (idem buffer 1, pH 4.5), im): 386 ± 2% | AUC + Variation (%) ([4]; buffer 2 (idem buffer 1, pH 4.5), sc): 53 ± 14% | AUC + Variation (%) ([4]; buffer 3 (0.2 M arginine, 0.2 M lysine pH 7.5), im): 756 ± 2% | AUC + Variation (%) ([4]; buffer 3 (0.2 M arginine, 0.2 M lysine pH 7.5), sc): 423 ± 3% | AUC + Variation (%) ([4]; buffer 4 (0.2 M arginine, 0.2 M lysine pH 4.5), im): 669 ± 17% | AUC + Variation (%) ([4]; buffer 4 (0.2 M arginine, 0.2 M lysine pH 4.5), sc): 382 ± 11% | AUC + Variation (%) ([4]; buffer 7 (0.05 M tris, 0.1 M NaCl pH 7.5, 0.1% Tween 80, 3% dimethyl sulfoxide), im): 184 ± 18% | AUC + Variation (%) ([4]; buffer 7 (0.05 M tris, 0.1 M NaCl pH 7.5, 0.1% Tween 80, 3% dimethyl sulfoxide), sc): 87 ± 12% | AUC + Variation (%) ([4]; buffer 8 (0.2 M arginine pH 7.5), im): 600 ± 4% | AUC + Variation (%) ([4]; buffer 8 (0.2 M arginine pH 7.5), sc): 320 ± 2% | AUC + Variation (%) ([4]; buffer 9 (0.2 M lysine pH 7.5), im): 610 ± 10% | AUC + Variation (%) ([4]; buffer 9 (0.2 M lysine pH 7.5), sc): 290 ± 11% | animals died ([5]; im): all animals died | animals died ([5]; sc): all animals died

CN [methylamine]
tolerability [3]: limited tolerability

Urokinase
influence on the bioavailability and/or improvement in the tolerability [1]: favorable influence | Number of animals with hemorrhages ([6]; 0.1 M NaCl pH 7.5, im): 2/3 | Number of animals with hemorrhages ([6]; 0.1 M NaCl pH 7.5, sc): 2/3 | hemorrhages at the administration site on sc and im administration [6, 7]: distinctly less

PP4: PP4 (placenta protein 4) prepared by the process of EP 0,123,307
influence on the bioavailability and/or improvement in the tolerability [1]: favorable influence

antithrombin III
influence on the bioavailability and/or improvement in the tolerability [1]: favorable influence
